Laboratory results as given in US20220025056A1.

Assays:
[1] = biological target: human ILT2 (LILRB1) expressed at the surface of transfected cells (human) (UniProt Q8NHL6); assay: flow cytometry, CHO-ILT2 cells
[2] = biological target: ILT-2_6xHis recombinant protein (human) (UniProt Q8NHL6); assay: Octet BLI, antibody on anti-mouse Fc sensor, soluble ILT2 analyte
Sequence of ILT-2_6xHis recombinant protein (human) (Q8NHL6 other isoform, or with tags, fused parts or gaps limits assumed): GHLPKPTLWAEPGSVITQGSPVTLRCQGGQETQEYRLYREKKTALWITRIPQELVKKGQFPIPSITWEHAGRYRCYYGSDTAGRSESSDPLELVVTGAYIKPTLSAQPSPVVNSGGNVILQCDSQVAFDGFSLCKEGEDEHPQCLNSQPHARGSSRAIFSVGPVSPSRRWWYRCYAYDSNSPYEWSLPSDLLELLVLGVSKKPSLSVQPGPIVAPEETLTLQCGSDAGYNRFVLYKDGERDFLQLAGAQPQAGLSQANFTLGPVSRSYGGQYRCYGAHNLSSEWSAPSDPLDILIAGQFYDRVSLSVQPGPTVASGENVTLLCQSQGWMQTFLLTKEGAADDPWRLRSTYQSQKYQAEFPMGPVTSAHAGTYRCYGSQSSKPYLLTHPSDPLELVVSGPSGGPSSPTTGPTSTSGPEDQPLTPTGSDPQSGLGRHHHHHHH

Sequence of human ILT2 (LILRB1) expressed at the surface of transfected cells (human) (Q8NHL6 24-650): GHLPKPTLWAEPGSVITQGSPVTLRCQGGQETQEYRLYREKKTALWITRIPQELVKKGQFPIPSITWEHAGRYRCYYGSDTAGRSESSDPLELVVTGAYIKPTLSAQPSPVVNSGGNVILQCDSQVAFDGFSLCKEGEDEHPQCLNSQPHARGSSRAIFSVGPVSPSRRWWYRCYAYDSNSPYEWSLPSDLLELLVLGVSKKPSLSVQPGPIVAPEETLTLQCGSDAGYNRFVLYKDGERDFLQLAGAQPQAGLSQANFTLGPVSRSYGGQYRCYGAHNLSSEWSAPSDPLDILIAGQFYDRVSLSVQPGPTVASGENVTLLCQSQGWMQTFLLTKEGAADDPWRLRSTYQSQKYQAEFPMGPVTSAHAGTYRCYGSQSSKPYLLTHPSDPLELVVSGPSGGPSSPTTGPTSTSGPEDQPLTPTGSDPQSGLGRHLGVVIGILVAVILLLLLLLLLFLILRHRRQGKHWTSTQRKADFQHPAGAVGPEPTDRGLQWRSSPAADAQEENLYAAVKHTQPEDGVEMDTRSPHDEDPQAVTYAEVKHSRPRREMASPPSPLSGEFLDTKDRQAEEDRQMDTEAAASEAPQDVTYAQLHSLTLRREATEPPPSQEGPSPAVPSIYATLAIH

- EC50 [1]: 5.39 µg/mL
- Kd [2]: 28.1 nM
- koff [2]: 0.00038 s⁻¹
- kon [2]: 13000 M⁻¹ s⁻¹
Substance: GHI/75 (antibody)
